How the values were obtained:
[1] = biological target: T1, Recombinant Human DLL4 (R&D Systems Cat#1506-D4/CF) (human, UniProt Q9NR61 27-524); experiment: MSD ECL multi-spot assay, antigen spotted on plate, Fab 0.51 uM; blank spot 1393
T1 construct: Bought protein; also called delta-like protein 4; rHuman DLL4

[2] = biological target: T2, rHuman ErbB2/Fc Chimera, CF (R&D Systems Cat#1129-ER) (human, UniProt P04626 23-652); experiment: as above
T2 construct: Bought protein; also called HER2/neu; human epidermal growth factor 2 receptor; Fc part of the bought chimera not given

[3] = biological target: T3, rHuman HGF R/c-MET/Fc Chimera, CF (R&D Systems Cat#358-MT/CF) (human, UniProt P08581 25-932); experiment: as above
T3 construct: Bought protein; also called HGF R/Fc; hepatocyte growth factor receptor; Fc part of the bought chimera not given

[4] = biological target: T4, rHuman CD44/Fc Chimera, CF (R&D Systems Cat#3660-CD) (human, UniProt P16070 21-220); experiment: as above
T4 construct: Bought protein; Fc part of the bought chimera not given

[5] = biological target: T5, rHuman IGF-1 sR (IGF-1 sR), CF (R&D Systems Cat#391-GR) (human, UniProt P08069 31-932); experiment: as above
T5 construct: Bought soluble receptor; also called insulin-like growth factor-1 soluble receptor; IGF-R1

[6] = biological target: T6, rHuman P-Cadherin/Fc Chimera, CF (R&D Systems Cat#861-PC) (human, UniProt P22223 108-654); experiment: MSD ECL multi-spot assay, antigen spotted on plate, Fab 0.28 uM; blank spot 1773
T6 construct: Bought protein; also called CDH3; Fc part of the bought chimera not given

[7] = biological target: T7, rHuman Notch-1/Fc Chimera, CF (R&D Systems Cat#3647-TK) (human, UniProt P46531 19-526); experiment: MSD ECL multi-spot assay, antigen spotted on plate, Fab 0.93 uM; blank spot 4760
T7 construct: Bought protein; Fc part of the bought chimera not given

[8] = biological target: T8, rHuman Erythropoietin R/Fc Chimera, CF (R&D Systems Cat#963-ER) (human, UniProt P19235 25-250); experiment: as above
T8 construct: Bought protein; also called EPOR; EPO R/Fc; Fc part of the bought chimera not given
T8 sequence: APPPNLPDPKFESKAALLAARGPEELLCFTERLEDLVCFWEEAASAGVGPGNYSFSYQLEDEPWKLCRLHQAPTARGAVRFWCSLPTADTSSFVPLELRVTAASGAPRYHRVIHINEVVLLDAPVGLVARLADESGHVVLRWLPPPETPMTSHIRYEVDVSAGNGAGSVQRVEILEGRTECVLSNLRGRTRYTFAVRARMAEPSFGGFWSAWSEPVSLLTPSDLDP

[9] = biological target: T5, rHuman IGF-1 sR (IGF-1 sR), CF (R&D …); experiment: as above
[10] = biological target: T1, Recombinant Human DLL4 (R&D Systems …); experiment: MSD ECL multi-spot assay, antigen spotted on plate, Fab 1.57 uM; blank spot 797
[11] = biological target: T2, rHuman ErbB2/Fc Chimera, CF (R&D …); experiment: as above
[12] = biological target: T7, rHuman Notch-1/Fc Chimera, CF (R&D …); experiment: as above
[13] = biological target: T8, rHuman Erythropoietin R/Fc Chimera, CF …; experiment: as above
[14] = biological target: T3, rHuman HGF R/c-MET/Fc Chimera, CF (R&D …); experiment: as above
[15] = biological target: T4, rHuman CD44/Fc Chimera, CF (R&D Systems …); experiment: as above
[16] = biological target: T5, rHuman IGF-1 sR (IGF-1 sR), CF (R&D …); experiment: as above
[17] = biological target: T1, Recombinant Human DLL4 (R&D Systems …); experiment: MSD ECL multi-spot assay, antigen spotted on plate, Fab 0.13 uM; blank spot 786
[18] = biological target: T2, rHuman ErbB2/Fc Chimera, CF (R&D …); experiment: as above
[19] = biological target: T9, rHuman EGF R/Fc Chimera, CF (R&D Systems Cat#344-ER) (human, UniProt P00533 25-645); experiment: as above
T9 construct: Bought protein; also called epidermal growth factor receptor; Fc part of the bought chimera not given

[20] = biological target: T7, rHuman Notch-1/Fc Chimera, CF (R&D …); experiment: as above
[21] = biological target: T8, rHuman Erythropoietin R/Fc Chimera, CF …; experiment: as above
[22] = biological target: T3, rHuman HGF R/c-MET/Fc Chimera, CF (R&D …); experiment: as above
[23] = biological target: T4, rHuman CD44/Fc Chimera, CF (R&D Systems …); experiment: as above
[24] = biological target: T5, rHuman IGF-1 sR (IGF-1 sR), CF (R&D …); experiment: as above
[25] = biological target: T1, Recombinant Human DLL4 (R&D Systems …); experiment: MSD ECL multi-spot assay, antigen spotted on plate, Fab 0.06 uM; blank spot 842
[26] = biological target: T2, rHuman ErbB2/Fc Chimera, CF (R&D …); experiment: as above
[27] = biological target: T4, rHuman CD44/Fc Chimera, CF (R&D Systems …); experiment: as above
[28] = biological target: T5, rHuman IGF-1 sR (IGF-1 sR), CF (R&D …); experiment: as above
[29] = biological target: T1, Recombinant Human DLL4 (R&D Systems …); experiment: MSD ECL multi-spot assay, antigen spotted on plate, Fab 0.48 uM; blank spot 2877;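 note: blank spot per well as comparator with Hit at signal to blank ratio of 4 or more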
[30] = biological target: T7, rHuman Notch-1/Fc Chimera, CF (R&D …); experiment: as above

B1: Fab VH4-34_IGHD7-27*01_IGHJ4*01 & L5_IGKJ1*01 (Fab, V domains shown)
VH: QVQLQQWGAGLLKPSETLSLTCAVYGGSFSGYYWSWIRQPPGKGLEWIGEINHSGSTNYNPSLKSRVTISVDTSKNQFSLKLSSVTAADTAVYYCARANWGDYFDYWGQGTLVTVSS
VL: DIQMTQSPSSVSASVGDRVTITCRASQGISSWLAWYQQKPGKAPKLLIYAASSLQSGVPSRFSGSGSGTDFTLTISSLQPEDFATYYCQQANSFPPWTFGQGTKVEIKR
notes: Fab from E. coli; VH joined to the CH1 (Flag and His tags) of Plasmid A, VL to the kappa CL of Plasmid C
[1]
  ECL signal: 5650
[2]
  ECL signal: 1700
[3]
  ECL signal: 1740
[4]
  ECL signal: 1880
[5]
  ECL signal: 1740

B2: Fab VH1-46_IGHD2-15*01_IGHJ2*01 & L12_IGKJ1*01 (Fab, V domains shown)
VH: QVQLVQSGAEVKKPGASVKVSCKASGYTFTSYYMHWVRQAPGQGLEWMGIINPSGGSTSYAQKFQGRVTMTRDTSTSTVYMELSSLRSEDTAVYYCAREGYCSGGSCYSYWYFDLWGRGTLVTVSS
VL: not shown
[6]
  ECL signal: 8060

B3: Fab VH1-46_IGHD3-10*01_IGHJ4*01 & L12_IGKJ1*01 (Fab, V domains shown)
VH: QVQLVQSGAEVKKPGASVKVSCKASGYTFTSYYMHWVRQAPGQGLEWMGIINPSGGSTSYAQKFQGRVTMTRDTSTSTVYMELSSLRSEDTAVYYCAREYYYGSGSYYNDYFDYWGQGTLVTVSS
VL: not shown
[7]
  ECL signal: 23700
[8]
  ECL signal: 16700
[9]
  ECL signal: 13900

B4: Fab VH1-46_IGHD3-10*01_IGHJ4*01 & O1_IGKJ1*01 (Fab, V domains shown)
VH: B3 VH
VL: DIVMTQTPLSLPVTPGEPASISCRSSQSLLDSDDGNTYLDWYLQKPGQSPQLLIYTLSYRASGVPDRFSGSGSGTDFTLKISRVEAEDVGVYYCMQRIEFPSWTFGQGTKVEIK
notes: as for B1
[10]
  ECL signal: 1500
[11]
  ECL signal: 904
[12]
  ECL signal: 1260
[13]
  ECL signal: 6390
[14]
  ECL signal: 1040
[15]
  ECL signal: 836
[16]
  ECL signal: 985

B5: Fab VH1-8_IGHD2-2*01_IGHJ6*01 & L12_IGKJ1*01 (Fab, V domains shown)
VH: QVQLVQSGAEVKKPGASVKVSCKASGYTFTSYDINWVRQATGQGLEWMGWMNPNSGNTGYAQKFQGRVTMTRNTSISTAYMELSSLRSEDTAVYYCARGGYCSSTSCYADYYYYYGMDVWGQGTTVTVSS
VL: not shown
[17]
  ECL signal: 9850
[18]
  ECL signal: 840
[19]
  ECL signal: 859
[20]
  ECL signal: 1320
[21]
  ECL signal: 1110
[22]
  ECL signal: 969
[23]
  ECL signal: 932
[24]
  ECL signal: 1170

B6: Fab VH1-3_IGHD4-23*01_IGHJ4*01 & L12_IGKJ1*01 (Fab, V domains shown)
VH: QVQLVQSGAEVKKPGASVKVSCKASGYTFTSYAMHWVRQAPGQRLEWMGWSNAGNGNTKYSQEFQGRVTITRDTSASTAYMELSSLRSEDMAVYYCARDDYGGNSDYFDYWGQGTLVTVSS
VL: not shown
[25]
  ECL signal: 13600
[26]
  ECL signal: 1570
[27]
  ECL signal: 1680
[28]
  ECL signal: 2320

B7: Fab VH1-46_IGHD6-13*01_IGHJ4*01 & A27_IGKJ1*01 (Fab, V domains shown)
VH: QVQLVQSGAEVKKPGASVKVSCKASGYTFTSYYMHWVRQAPGQGLEWMGIINPSGGSTSYAQKFQGRVTMTRDTSTSTVYMELSSLRSEDTAVYYCAREGYSSSWYDYFDYWGQGTLVTVSS
VL: not shown
notes: as for B1
[29]
  ECL signal: 13700
[30]
  ECL signal: 12800

Reference: US20120058906A1 (published 2012)
